Experiments:
Conditions in all cases: protein: recombinant; label: 13-nm gold nanosphere via DNA1 3' thiol; partial duplex: aptamer 5' part pairs with DNA1; aptamer 3' overhang; DNA1 3' AAA tail
MMP-9 = MMP-9 (human, UniProt P14780 107-707); assay: SERS nanosensor (aptamer strand displacement, AuNS aggregation; UV-vis, DLS, TEM); MMP-9 10 ng/mL (selectivity), 350 ng/mL (UV-vis, DLS, TEM); AuNS-2 with DNA2/DTNB present; Assay buffer for MMP-9 in solution not in the material; duplex annealed in 8 mM phosphate, 0.8 mM MgCl2, 20 mM NaCl; cell supernatant assay at 37 C for 2 h
Sequence of MMP-9 (P14780 107-707): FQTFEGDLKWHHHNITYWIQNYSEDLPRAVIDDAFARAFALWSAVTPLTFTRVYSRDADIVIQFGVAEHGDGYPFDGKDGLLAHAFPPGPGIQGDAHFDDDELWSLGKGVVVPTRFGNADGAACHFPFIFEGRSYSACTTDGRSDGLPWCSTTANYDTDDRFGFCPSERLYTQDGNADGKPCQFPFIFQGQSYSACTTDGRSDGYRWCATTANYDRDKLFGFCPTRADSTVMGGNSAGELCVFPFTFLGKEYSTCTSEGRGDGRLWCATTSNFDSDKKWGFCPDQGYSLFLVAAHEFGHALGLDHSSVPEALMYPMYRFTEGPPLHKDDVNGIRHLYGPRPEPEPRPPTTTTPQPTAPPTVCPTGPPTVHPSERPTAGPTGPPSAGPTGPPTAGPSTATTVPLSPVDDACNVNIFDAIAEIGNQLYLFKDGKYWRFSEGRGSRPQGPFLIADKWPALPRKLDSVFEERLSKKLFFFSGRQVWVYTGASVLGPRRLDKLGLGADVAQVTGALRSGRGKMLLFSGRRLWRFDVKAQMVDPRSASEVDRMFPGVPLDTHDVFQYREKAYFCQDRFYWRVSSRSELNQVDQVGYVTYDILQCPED

MMP-7 = molecular target: T1, MMP-7 (human, UniProt P09237 95-267); assay: SERS nanosensor (aptamer strand displacement); 100 ng/mL; AuNS-2 with DNA2/DTNB present; Assay buffer for MMP-9 in solution not in the material; duplex annealed in 8 mM phosphate, 0.8 mM MgCl2, 20 mM NaCl; cell supernatant assay at 37 C for 2 h
T1 sequence: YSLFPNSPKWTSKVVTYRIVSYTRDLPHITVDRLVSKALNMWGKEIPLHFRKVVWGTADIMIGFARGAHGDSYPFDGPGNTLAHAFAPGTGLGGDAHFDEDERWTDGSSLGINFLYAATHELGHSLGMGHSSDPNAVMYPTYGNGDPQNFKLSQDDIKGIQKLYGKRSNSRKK

MMP-3 = MMP-3 (human, UniProt P08254 100-477); assay: as above
Sequence of MMP-3 (P08254 100-477): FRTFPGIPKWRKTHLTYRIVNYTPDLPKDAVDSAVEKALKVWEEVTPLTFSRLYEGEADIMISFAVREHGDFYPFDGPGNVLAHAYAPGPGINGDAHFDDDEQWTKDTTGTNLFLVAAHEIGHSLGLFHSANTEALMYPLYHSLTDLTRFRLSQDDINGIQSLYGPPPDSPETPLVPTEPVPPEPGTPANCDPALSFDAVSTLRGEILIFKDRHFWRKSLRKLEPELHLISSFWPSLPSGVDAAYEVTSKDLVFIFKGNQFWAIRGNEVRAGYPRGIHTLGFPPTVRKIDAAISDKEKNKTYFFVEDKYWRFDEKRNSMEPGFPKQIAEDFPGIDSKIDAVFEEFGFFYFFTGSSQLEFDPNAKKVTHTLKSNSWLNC

MMP-2 = MMP-2 (human, UniProt P08253 110-660); assay: as above
Sequence of MMP-2 (P08253 110-660): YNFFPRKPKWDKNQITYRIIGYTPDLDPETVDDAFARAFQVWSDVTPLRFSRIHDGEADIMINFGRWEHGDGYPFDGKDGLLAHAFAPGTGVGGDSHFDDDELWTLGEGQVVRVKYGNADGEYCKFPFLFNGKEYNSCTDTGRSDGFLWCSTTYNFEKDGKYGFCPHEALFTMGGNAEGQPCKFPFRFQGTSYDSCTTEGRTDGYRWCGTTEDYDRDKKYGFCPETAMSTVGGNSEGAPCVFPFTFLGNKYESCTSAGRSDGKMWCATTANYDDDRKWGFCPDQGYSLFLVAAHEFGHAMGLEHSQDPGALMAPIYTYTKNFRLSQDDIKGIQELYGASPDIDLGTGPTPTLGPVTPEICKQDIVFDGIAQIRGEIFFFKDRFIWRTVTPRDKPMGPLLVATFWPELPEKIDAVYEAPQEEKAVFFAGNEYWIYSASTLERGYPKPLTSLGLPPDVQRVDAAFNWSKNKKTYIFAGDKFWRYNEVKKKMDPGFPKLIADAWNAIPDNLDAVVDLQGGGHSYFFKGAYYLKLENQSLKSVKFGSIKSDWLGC

B1: MMP-9 aptamer (annealed to DNA1 on AuNS-1) (mixed)
DNA 1: TCGTATGGCACGGGGTTGGTGTTGGGTTGG
DNA 2: GGTGTGCCATACGAAA
modifications: DNA1 3' ThioMC3-D
binding result (MMP-9): binds | binding result (MMP-7): no binding | binding result (MMP-3): no binding | binding result (MMP-2): no binding

Reference: paper PMC10798921, “Target-induced hot spot construction for sensitive and selective surface-enhanced Raman scattering detection of matrix metalloproteinase MMP-9”
